Laboratory results taken from US20260035452A1 (THE UNIVERSITY OF BIRMINGHAM, priority 2022, published 2026).
Marks after values point to notes of the source that are not given here.

Tests used:
patients = patients with IBD; cited from earlier work
[1] = Haematological investigations; assay type: in vivo; conditions: mice, 100 μg/mouse
Method: To assess the neutralising activity of Ab-IPL-IL-17™, CD-1 mice were injected i.p. with 100 μg/mouse of Ab-IPL-IL-17™, MAB421 or secukinumab as positive controls. After 30 min, an i.p. injection of 10 μg/mouse of IL-17A, IL-17F or IL-17A/F heterodimer was administered. After 2 h blood was collected by intracardiac puncture and serum levels of (A) IL-17A, (B) IL-17F or (C) IL-17A/F heterodimer were quantified by Elisa. (C-F) For the evaluation of immunogenic effects CD-1 mice were injected i.p. with 100 μg of IgG1 isotype antibody (vehicle) or IL-17 neutralising antibodies (bimekizumab, secukinumab, MAB421 or Ab-IPL-IL-17™). In the selected time-point (2 h, 24 h, 72 h, 7 days, 14 days and 21 days) total IgG, IgG1, lymphocytes and platelets levels were determined by Elisa and haematological blood count test, respectively. Data are presented as mean±S.D. for n=5 mice per group. Statistical analysis was conducted by one or two-way ANOVA followed by Bonferroni's for multiple comparisons. *P≤0.05, **P≤0.01, ***P≤0.001 vs IL-17 group; ^#P≤0.05, ^##P≤0.01, ^###P≤0.001, ^####P≤0.0001 vs vehicle group.
Standard laboratory procedures were used for blood sampling and measurements (95). Haematological investigations, for all experimental conditions, including blood count test, leukocyte, and sidereal formula were performed on citrated and not-anticoagulated blood samples, respectively. Serological tests were performed by CELL-DYN Sapphire purchased from Abbott S.R.L. (Milan, Italy). All procedures were conducted under strictly aseptic conditions.
Standard laboratory procedures were used for blood sampling and measurements. Haematological investigations, for all experimental conditions, including blood count test, leukocyte, and sidereal formula were performed on citrated and not-anticoagulated blood samples, respectively. Serological tests were performed by CELL-DYN Sapphire purchased from Abbott S.R.L. (Milan, Italy). All procedures were conducted under strictly aseptic conditions.

Secukinumab: human anti-IL-17A monoclonal antibody
side effect: intestinal inflammation (patients): enhanced intestinal inflammation
GRA (Granulocytes) ([1]; 2 h): 0.22 ± 0.16 10^3/μL
HCT (Hematocrit) ([1]; 2 h): 29.56 ± 2.26%
HGB (Hemoglobin) ([1]; 2 h): 9.92 ± 1.78 g/dL
MCH (Mean Corpuscular Hemoglobin) ([1]; 2 h): 17.58 ± 1.42 pg
MCV (Mean Cell Volume) ([1]; 2 h): 61.86 ± 8.95 fL
MHCH ([1]; 2 h): 30.60 ± 4.27 g/dL
MID ([1]; 2 h): 0.38 ± 0.31 10^3/μL
MPV (Mean Platelet Volume) ([1]; 2 h): 4.54 ± 0.5771 fL
PCT (Plateletcrit) ([1]; 2 h): 0.27 ± 0.08%
PWD (Platelet Distribution Width) ([1]; 2 h): 16.30 ± 2.15%
RBC (Red Blood Cells) ([1]; 2 h): 5.57 ± 1.18 10^6/μL
RDW (Red blood cells Distribution Width) ([1]; 2 h): 18.14 ± 1.87%
WBC (White Blood Cells) ([1]; 2 h): 3.96 ± 1.19 10^3/μL
GRA (Granulocytes) ([1]; 24 h): 0.24 ± 0.11 10^3/μL
HCT (Hematocrit) ([1]; 24 h): 28.86 ± 1.80%
HGB (Hemoglobin) ([1]; 24 h): 8.88 ± 1.65 g/dL
MCH (Mean Corpuscular Hemoglobin) ([1]; 24 h): 19.10 ± 1.88 pg
MCV (Mean Cell Volume) ([1]; 24 h): 63.60 ± 8.78 fL
MHCH ([1]; 24 h): 31.54 ± 4.15 g/dL
MID ([1]; 24 h): 0.44 ± 0.25 10^3/μL
MPV (Mean Platelet Volume) ([1]; 24 h): 5.16 ± 0.8764 fL
PCT (Plateletcrit) ([1]; 24 h): 0.25 ± 0.09%
PWD (Platelet Distribution Width) ([1]; 24 h): 16.06 ± 2.30%
RBC (Red Blood Cells) ([1]; 24 h): 4.48 ± 1.11 10^6/μL
RDW (Red blood cells Distribution Width) ([1]; 24 h): 18.24 ± 1.12%
WBC (White Blood Cells) ([1]; 24 h): 4.44 ± 1.88 10^3/μL
GRA (Granulocytes) ([1]; 72 h): 0.30 ± 0.16 10^3/μL
HCT (Hematocrit) ([1]; 72 h): 21.30 ± 5.47** %
HGB (Hemoglobin) ([1]; 72 h): 6.92 ± 1.53* g/dL
MCH (Mean Corpuscular Hemoglobin) ([1]; 72 h): 21.78 ± 4.20* pg
MCV (Mean Cell Volume) ([1]; 72 h): 81.12 ± 8.84 fL
MHCH ([1]; 72 h): 30.90 ± 6.72 g/dL
MID ([1]; 72 h): 0.40 ± 0.25 10^3/μL
MPV (Mean Platelet Volume) ([1]; 72 h): 7.80 ± 1.733**** fL
PCT (Plateletcrit) ([1]; 72 h): 0.16 ± 0.06%
PWD (Platelet Distribution Width) ([1]; 72 h): 18.02 ± 2.61%
RBC (Red Blood Cells) ([1]; 72 h): 3.7 ± 1.05* 10^6/μL
RDW (Red blood cells Distribution Width) ([1]; 72 h): 16.86 ± 3.47%
WBC (White Blood Cells) ([1]; 72 h): 5.10 ± 2.34 10^3/μL
GRA (Granulocytes) ([1]; 7 d): 0.24 ± 0.13 10^3/μL
HCT (Hematocrit) ([1]; 7 d): 22.94 ± 4.68* %
HGB (Hemoglobin) ([1]; 7 d): 7.76 ± 1.31 g/dL
MCH (Mean Corpuscular Hemoglobin) ([1]; 7 d): 21.14 ± 4.82 pg
MCV (Mean Cell Volume) ([1]; 7 d): 71.98 ± 8.64 fL
MHCH ([1]; 7 d): 29.50 ± 5.03 g/dL
MID ([1]; 7 d): 0.40 ± 0.16 10^3/μL
MPV (Mean Platelet Volume) ([1]; 7 d): 6.58 ± 1.242* fL
PCT (Plateletcrit) ([1]; 7 d): 0.21 ± 0.05%
PWD (Platelet Distribution Width) ([1]; 7 d): 15.54 ± 2.91%
RBC (Red Blood Cells) ([1]; 7 d): 4.10 ± 0.78 10^6/μL
RDW (Red blood cells Distribution Width) ([1]; 7 d): 18.38 ± 1.90%
WBC (White Blood Cells) ([1]; 7 d): 4.74 ± 1.30 10^3/μL
GRA (Granulocytes) ([1]; 14 d): 0.20 ± 0.10 10^3/μL
HCT (Hematocrit) ([1]; 14 d): 27.88 ± 2.63%
HGB (Hemoglobin) ([1]; 14 d): 9.480 ± 1.36 g/dL
MCH (Mean Corpuscular Hemoglobin) ([1]; 14 d): 17.50 ± 1.09 pg
MCV (Mean Cell Volume) ([1]; 14 d): 63.46 ± 8.13 fL
MHCH ([1]; 14 d): 29.64 ± 4.38 g/dL
MID ([1]; 14 d): 0.38 ± 0.13 10^3/μL
MPV (Mean Platelet Volume) ([1]; 14 d): 5.86 ± 0.5128 fL
PCT (Plateletcrit) ([1]; 14 d): 0.25 ± 0.05%
PWD (Platelet Distribution Width) ([1]; 14 d): 15.98 ± 2.03%
RBC (Red Blood Cells) ([1]; 14 d): 5.98 ± 1.42 10^6/μL
RDW (Red blood cells Distribution Width) ([1]; 14 d): 18.06 ± 2.06%
WBC (White Blood Cells) ([1]; 14 d): 3.08 ± 0.86 10^3/μL
GRA (Granulocytes) ([1]; 21 d): 0.20 ± 0.10 10^3/μL
HCT (Hematocrit) ([1]; 21 d): 29.04 ± 2.30%
HGB (Hemoglobin) ([1]; 21 d): 10.16 ± 1.52 g/dL
MCH (Mean Corpuscular Hemoglobin) ([1]; 21 d): 17.62 ± 1.05 pg
MCV (Mean Cell Volume) ([1]; 21 d): 62.56 ± 7.90 fL
MHCH ([1]; 21 d): 30.34 ± 4.54 g/dL
MID ([1]; 21 d): 0.34 ± 0.15 10^3/μL
MPV (Mean Platelet Volume) ([1]; 21 d): 4.92 ± 0.4207 fL
PCT (Plateletcrit) ([1]; 21 d): 0.28 ± 0.04%
PWD (Platelet Distribution Width) ([1]; 21 d): 16.14 ± 1.80%
RBC (Red Blood Cells) ([1]; 21 d): 6.25 ± 1.18 10^6/μL
RDW (Red blood cells Distribution Width) ([1]; 21 d): 18.34 ± 1.33%
WBC (White Blood Cells) ([1]; 21 d): 3.280 ± 1.47 10^3/μL
